As usually defined, the Kd is the concentration at which binding is half-saturated.

Positions count from the first letter of the chain named.

From patent publication US20190263882A1 (Scripps Research, published 2019) come the findings set out here.

Sequences and labels used below:
B1: SC3: Palivizumab (null, 16GS)-relaxin2(9GS) and Palivizumab L (antibody, human IgG1, kappa)
heavy: DSWMEEVIKLCGRELVRAQIAICGMSTWSGGGGSGGGGQLYSALANKCCHVGCTKRSLARFCGGGGSGGGGSGGGGSGQVTLRESGPALVKPTQTLTLTCTFSGFSLSTSGMSVGWIRQPPGKALEWLADIWWDDKKDYNPSLKSRLTISKDTSKNQVVLKVTNMDPADTATYYCARSMITNWYFDVWGAGTTVTVSSASTKGPSVFPLAPSSKSTSGGTAALGCLVKDYFPEPVTVSWNSGALTSGVHTFPAVLQSSGLYSLSSVVTVPSSSLGTQTYICNVNHKPSNTKVDKKVEPKSCDKTHTCPPCPAPPVAGPSVFLFPPKPKDTLMISRTPEVTCVVVDVSHEDPEVKFNWYVDGVEVHNAKTKPREEQYNSTYRVVSVLTVLHQDWLNGKEYKCKVSNKGLPSSIEKTISKAKGQPREPQVYTLPPSRDELTKNQVSLTCLVKGFYPSDIAVEWESNGQPENNYKTTPPVLDSDGSFFLYSKLTVDKSRWQQGNVFSCSVMHEALHNHYTQKSLSLSPGK
light: DIQMTQSPSTLSASVGDRVTITCKCQLSVGYMHWYQQKPGKAPKLLIYDTSKLASGVPSRFSGSGSGTEFTLTISSLQPDDFATYYCFQGSGYPFTFGGGTKLEIKRTVAAPSVFIFPPSDEQLKSGTASVVCLLNNFYPREAKVQWKVDNALQSGNSQESVTEQDSKDSTYSLSSTLTLSKADYEKHKVYACEVTHQGLSSPVTKSFNRGEC
B2: SCX1: palivizumab(NH1, 16GS)-relaxin2(9GS) and palivizumab L (antibody, human IgG1, kappa)
heavy: B1 heavy with W183A
light: B1 light
B3: SCX2: palivizumab(NH2, 16GS)-relaxin2(9GS) and palivizumab L (antibody, human IgG1, kappa)
heavy: B1 heavy with W183G
light: B1 light
B4: SCX3: palivizumab(NH3, 16GS)-relaxin2(9GS) and palivizumab L (antibody, human IgG1, kappa)
heavy: B1 heavy with N182F, W183G, Y184G
light: B1 light

The target in the first assay is T1, RSV F protein (UniProt P03420 26-524). Nature of the assay: plate binding assay, RSV F protein coated, anti-human IgG (Fc specific) detection, fluorescence read at 50 min.
T1 sequence (P03420 26-524): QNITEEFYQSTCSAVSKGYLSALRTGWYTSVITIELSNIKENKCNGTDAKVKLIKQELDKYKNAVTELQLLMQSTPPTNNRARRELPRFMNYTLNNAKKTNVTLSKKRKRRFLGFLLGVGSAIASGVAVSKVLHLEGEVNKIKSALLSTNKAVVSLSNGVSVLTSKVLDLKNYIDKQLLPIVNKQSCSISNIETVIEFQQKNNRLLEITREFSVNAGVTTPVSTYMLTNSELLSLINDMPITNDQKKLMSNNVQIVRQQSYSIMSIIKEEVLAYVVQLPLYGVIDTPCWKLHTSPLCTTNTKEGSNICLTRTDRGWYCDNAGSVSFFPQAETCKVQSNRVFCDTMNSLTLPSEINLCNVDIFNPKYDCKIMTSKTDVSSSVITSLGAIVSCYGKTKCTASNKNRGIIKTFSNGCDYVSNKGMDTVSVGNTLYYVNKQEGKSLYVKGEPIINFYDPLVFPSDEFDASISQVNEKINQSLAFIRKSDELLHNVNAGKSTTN
B1 came in with a Kd of 0.249 nM. This lies in the sub-nanomolar range.

B2 displayed a Kd of 83.1 nM.

B3 displayed a Kd of 9.03 nM.

On to B4, for which binding was put at a Kd of 107 nM.

Another assay has as its target T1, RSV F protein. The assay can be described thus: plate binding assay, RSV F protein coated, anti-human IgG (Fc specific) detection, fluorescence read at 25 min.
Turning to B1, the dissociation constant (Kd) is 0.425 nM.

B2 displayed a dissociation constant (Kd) of 112 nM.

Consider B3, for which the affinity, expressed as Kd, was 14.4 nM. This Kd lies about 7.8-fold lower than the previous one.

B4 displayed a Kd of 163 nM.

The next assay concerns the target T2, relaxin receptor (LGR7).
T2 sequence (Q9HBX9 whole entry, species assumed, looked up): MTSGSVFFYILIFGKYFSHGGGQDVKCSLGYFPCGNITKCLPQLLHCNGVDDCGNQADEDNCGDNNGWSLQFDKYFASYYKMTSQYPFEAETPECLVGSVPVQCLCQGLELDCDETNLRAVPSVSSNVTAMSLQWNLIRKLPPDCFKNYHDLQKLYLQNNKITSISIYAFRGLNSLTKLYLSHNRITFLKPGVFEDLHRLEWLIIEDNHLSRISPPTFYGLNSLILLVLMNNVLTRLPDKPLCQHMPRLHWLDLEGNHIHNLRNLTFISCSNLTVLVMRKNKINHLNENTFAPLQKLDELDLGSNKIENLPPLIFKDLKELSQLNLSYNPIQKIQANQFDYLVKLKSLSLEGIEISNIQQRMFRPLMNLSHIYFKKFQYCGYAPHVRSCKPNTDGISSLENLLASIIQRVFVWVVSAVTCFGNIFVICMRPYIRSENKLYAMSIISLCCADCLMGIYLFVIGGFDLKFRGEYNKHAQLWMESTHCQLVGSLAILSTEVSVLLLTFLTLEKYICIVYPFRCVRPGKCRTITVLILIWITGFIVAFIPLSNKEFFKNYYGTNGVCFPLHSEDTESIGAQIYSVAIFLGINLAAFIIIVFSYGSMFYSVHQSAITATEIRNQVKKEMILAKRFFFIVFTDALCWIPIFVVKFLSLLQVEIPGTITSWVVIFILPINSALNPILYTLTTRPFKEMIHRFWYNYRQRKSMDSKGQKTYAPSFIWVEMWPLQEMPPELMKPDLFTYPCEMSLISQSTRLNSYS
Nature of the assay: cell-based or functional assay.
Turning to B2, the “EC50, CRE-luciferase reporter assay” value is 0.0691 nM.

Regarding B3, the “EC50, CRE-luciferase reporter assay” value turned out to be 0.0612 nM.

Take B4: the “EC50, CRE-luciferase reporter assay” value was 0.129 nM.

The target in a further assay is LGR8. The assay can be described thus: cell-based or functional assay.
Chain of LGR8 (Q8WXD0 whole entry): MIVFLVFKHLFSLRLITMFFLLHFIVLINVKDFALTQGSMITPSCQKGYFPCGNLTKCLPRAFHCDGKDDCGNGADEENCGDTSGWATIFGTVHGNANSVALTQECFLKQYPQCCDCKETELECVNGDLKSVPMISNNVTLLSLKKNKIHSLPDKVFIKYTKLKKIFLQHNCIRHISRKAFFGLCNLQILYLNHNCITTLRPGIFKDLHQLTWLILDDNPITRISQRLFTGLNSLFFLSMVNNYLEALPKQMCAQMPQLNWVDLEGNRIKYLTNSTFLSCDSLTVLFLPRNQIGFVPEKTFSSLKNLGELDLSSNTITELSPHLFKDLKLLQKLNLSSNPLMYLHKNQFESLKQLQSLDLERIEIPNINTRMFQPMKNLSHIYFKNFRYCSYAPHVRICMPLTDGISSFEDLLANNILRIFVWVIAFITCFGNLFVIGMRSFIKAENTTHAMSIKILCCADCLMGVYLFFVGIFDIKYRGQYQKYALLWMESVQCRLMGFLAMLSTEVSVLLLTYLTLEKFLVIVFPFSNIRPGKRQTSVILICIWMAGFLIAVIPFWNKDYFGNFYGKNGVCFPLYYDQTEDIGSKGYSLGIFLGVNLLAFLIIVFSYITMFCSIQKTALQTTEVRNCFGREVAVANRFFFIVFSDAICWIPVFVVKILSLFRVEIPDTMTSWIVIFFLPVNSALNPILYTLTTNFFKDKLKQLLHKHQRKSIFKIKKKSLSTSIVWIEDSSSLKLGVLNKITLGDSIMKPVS
On to B1, for which the “LGR8” value amounted to 177 nM.

With B2, the “LGR8” value came to 939 nM.

As to B3, the “LGR8” value worked out at 327 nM.

On to B4, for which the “LGR8” value turned out to be 16300 nM.

For the next assay, the target named is T2, relaxin receptor (LGR7). Nature of the assay: cell-based or functional assay. The source holds these as a separate data set.
Turning to B1, the “LGR7” value was found to be 0.205 nM.

As to B2, the “LGR7” value was 0.129 nM.

Turning to B3, the “LGR7” value was found to be 0.115 nM.

As for B4, the “LGR7” value amounted to 0.115 nM.
